Article PMC7876468 (Frontiers in Medicine, 2021)

These binders were tested against T1, CHIKV VLPs (Chikungunya virus, VLP strain not …, UniProt Q5XXP3) (assay: MagPlex direct binding assay). Conditions: both partners purified.
T1 construct: also called CHIKV virus-like particles
T1 sequence (Q5XXP3 whole entry, looked up): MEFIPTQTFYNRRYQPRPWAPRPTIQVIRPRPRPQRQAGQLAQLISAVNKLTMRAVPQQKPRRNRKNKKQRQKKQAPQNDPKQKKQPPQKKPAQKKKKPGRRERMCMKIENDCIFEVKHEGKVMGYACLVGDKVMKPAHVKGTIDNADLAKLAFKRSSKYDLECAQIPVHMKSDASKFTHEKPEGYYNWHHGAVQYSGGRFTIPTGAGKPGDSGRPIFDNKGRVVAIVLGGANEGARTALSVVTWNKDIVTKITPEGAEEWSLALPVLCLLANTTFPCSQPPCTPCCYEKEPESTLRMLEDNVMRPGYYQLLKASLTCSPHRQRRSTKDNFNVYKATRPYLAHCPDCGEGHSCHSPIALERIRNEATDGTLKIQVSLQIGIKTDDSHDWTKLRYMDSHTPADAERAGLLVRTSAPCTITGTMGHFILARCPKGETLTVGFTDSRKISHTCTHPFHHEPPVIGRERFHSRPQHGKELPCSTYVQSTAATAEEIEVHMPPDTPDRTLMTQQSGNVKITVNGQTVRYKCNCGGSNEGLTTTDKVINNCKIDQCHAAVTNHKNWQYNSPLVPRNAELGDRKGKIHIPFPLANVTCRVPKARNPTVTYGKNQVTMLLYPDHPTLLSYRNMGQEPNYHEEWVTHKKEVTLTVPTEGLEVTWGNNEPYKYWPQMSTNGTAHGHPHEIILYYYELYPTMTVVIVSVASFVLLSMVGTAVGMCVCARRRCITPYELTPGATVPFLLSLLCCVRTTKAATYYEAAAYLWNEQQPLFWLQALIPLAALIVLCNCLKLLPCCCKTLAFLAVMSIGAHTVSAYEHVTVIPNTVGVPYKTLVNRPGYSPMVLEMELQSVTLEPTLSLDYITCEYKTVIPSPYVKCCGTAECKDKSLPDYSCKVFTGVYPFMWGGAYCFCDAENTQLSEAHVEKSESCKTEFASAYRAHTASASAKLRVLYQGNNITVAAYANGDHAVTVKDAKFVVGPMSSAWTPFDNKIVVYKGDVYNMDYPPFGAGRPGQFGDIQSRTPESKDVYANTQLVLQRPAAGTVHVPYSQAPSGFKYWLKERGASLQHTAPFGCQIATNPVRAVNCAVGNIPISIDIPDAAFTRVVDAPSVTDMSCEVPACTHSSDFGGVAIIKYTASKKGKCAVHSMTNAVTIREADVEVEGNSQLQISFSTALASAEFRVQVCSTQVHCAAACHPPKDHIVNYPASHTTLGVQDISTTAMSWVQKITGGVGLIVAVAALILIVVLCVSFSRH

Binder | binding result
CC3-hop (VHH, also called CC3 with the hop tail; original CC3-hop) VHH: EVQLQASGGGSVQAGGSLRLSCVTSQNLFEYYTMGWYRQVPGSQRERVALINNGGSTVAGSVEGRFTISRDHAKNSVYLQMNYLKPEDSAVYYCRAFGPADYWGQGTQVTVSS | binds
CC3-m8hop (VHH, Theoretical pI 9.18; also called variant 8) VHH: QVKLQASGGGSVQAGGSLRLSCVTSQNLFEYYTMGWYRQVPGSQRERVALINNGGSTVAGSVKGRFTISRDHAKNSVYLQMNYLKPEDSAVYYCRAFGPADYWGQGTQVTVSS | binds
CC3-m6hop (VHH, Theoretical pI 8.75) VHH: QVKLQASGGGSVQAGGSLRLSCVTSQNLFEYYTMGWYRQVPGSQRERVALINNGGSTVAGSVEGRFTISRDHAKNSVYLQMNYLKPEDSAVYYCRAFGPADYWGQGTQVTVSS | binds
CC3-m7hop (VHH, Theoretical pI 9.0) VHH: QVKLQASGGGSVQAGGSLRLSCVTSQNLFEYYTMGWYRQVPGSQRERVALINNGGSTVAGSVVGRFTISRDHAKNSVYLQMNYLKPEDSAVYYCRAFGPADYWGQGTQVTVSS | binds
CC3-m9hop (VHH, Theoretical pI 9.35; also called variant 9) VHH: QVKLQASGGGSVQAGGSLRLSCVTSQNLFEYYTMGWYRQVPGSQRERVALINNGGSTVAGSVKGRFTISRDHAKNSVYLQMNYLKREDSAVYYCRAFGPADYWGQGTQVTVSS | binds
CC3-m3hop (VHH, Theoretical pI 6.63) VHH: EVQLVESGGGSVQAGGSLRLSCVTSQNLFEYYTMGWYRQVPGSQRERVALINNGGSTVAGSVEGRFTISRDHAKNSVYLQMNYLQPEDSAVYYCRAFGPADYWGQGTQVTVSS | binds
CC3-m4hop (VHH, Theoretical pI 7.04) VHH: EVQLVESGGGSVQAGGSLRLSCVTSQNLFEYYTMGWYRQVPGSQRERVALINNGGSTVAGSVEGRFTISRDHAKNSVYLQMNYLKPEDSAVYYCRAFGPADYWGQGTQVTVSS | binds
CC3-m5hop (VHH, Theoretical pI 8.40) VHH: EVKLQASGGGSVQAGGSLRLSCVTSQNLFEYYTMGWYRQVPGSQRERVALINNGGSTVAGSVEGRFTISRDHAKNSVYLQMNYLKPEDSAVYYCRAFGPADYWGQGTQVTVSS | binds
CC3-m2hop (VHH, Theoretical pI 6.35) VHH: EVQLVESGGGSVQAGDSLRLSCVTSQNLFEYYTMGWYRQVPGSQRERVALINNGGSTVAGSVEGRFTISRDHAKNSVYLQMNYLQPEDSAVYYCRAFGPADYWGQGTQVTVSS | binds
